Laboratory results as given in patent US5801039.

T1: succinyl-L-alanyl-L-alanyl-L-prolyl-L-phenylalanyl-p-nitroanilide
T1 sequence (peptide, N-terminal succinyl; C-terminal p-nitroanilide): AAPF


Tests used:
[1] = target: casein (prepared according to Hammarsten; Merck, Darmstadt, #2242)
[2] = target: T1, succinyl-L-alanyl-L-alanyl-L-prolyl-L-phenylalanyl-p-nitroanilide

| Specific Activity (HPE · mg^-1) [1] [HPE · mg^-1] | kcat · Km^-1 [2] [M⁻¹ s⁻¹] | Binder |
| --- | --- | --- |
| 4000 | 297000 | Bacillus lentus DSM 5483 alkaline protease (BLAP), wild type enzyme (enzyme) AQSVPWGISRVQAPAAHNRGLTGSGVKVAVLDTGISTHPDLNIRGGASFVPGEPSTQDGNGHGTHVAGTIAALNNSIGVLGVAPSAELYAVKVLGADGRGAISSIAQGLEWAGNNGMHVANLSLGSPSPSATLEQAVNSATSRGVLVVAASGNSGASSISYPARYANAMAVGATDQNNNRASFSQYGAGLDIVAPGVNVQSTYPGSTYASLNGTSMATPHVAGAAALVKQKNPSWSNVQIRNHLKNTATSLGSTNLYGSGLVNAEAATR |
| 3180 | 179000 | BLAP mutant F46 (S3T + V4I + S154E + A188P + V193M + V199I) (enzyme) AQTIPWGISRVQAPAAHNRGLTGSGVKVAVLDTGISTHPDLNIRGGASFVPGEPSTQDGNGHGTHVAGTIAALNNSIGVLGVAPSAELYAVKVLGADGRGAISSIAQGLEWAGNNGMHVANLSLGSPSPSATLEQAVNSATSRGVLVVAASGNEGASSISYPARYANAMAVGATDQNNNRASFSQYGPGLDIMAPGVNIQSTYPGSTYASLNGTSMATPHVAGAAALVKQKNPSWSNVQIRNHLKNTATSLGSTNLYGSGLVNAEAATR |
| 3200 | 2600 | BLAP mutant F55 (S3T + V4I + S154E + A188P + V193M + V199I + L211D) (enzyme) AQTIPWGISRVQAPAAHNRGLTGSGVKVAVLDTGISTHPDLNIRGGASFVPGEPSTQDGNGHGTHVAGTIAALNNSIGVLGVAPSAELYAVKVLGADGRGAISSIAQGLEWAGNNGMHVANLSLGSPSPSATLEQAVNSATSRGVLVVAASGNEGASSISYPARYANAMAVGATDQNNNRASFSQYGPGLDIMAPGVNIQSTYPGSTYASDNGTSMATPHVAGAAALVKQKNPSWSNVQIRNHLKNTATSLGSTNLYGSGLVNAEAATR |
| 2510 | 1300 | BLAP mutant F54 (S3T + V4I + R99G + A188P + V193M + V199I + L211D) (enzyme) AQTIPWGISRVQAPAAHNRGLTGSGVKVAVLDTGISTHPDLNIRGGASFVPGEPSTQDGNGHGTHVAGTIAALNNSIGVLGVAPSAELYAVKVLGADGGGAISSIAQGLEWAGNNGMHVANLSLGSPSPSATLEQAVNSATSRGVLVVAASGNSGASSISYPARYANAMAVGATDQNNNRASFSQYGPGLDIMAPGVNIQSTYPGSTYASDNGTSMATPHVAGAAALVKQKNPSWSNVQIRNHLKNTATSLGSTNLYGSGLVNAEAATR |
| 3750 | 103000 | BLAP mutant F44 (S3T + V4I + R99A + A188P + V193M + V199I) (enzyme) AQTIPWGISRVQAPAAHNRGLTGSGVKVAVLDTGISTHPDLNIRGGASFVPGEPSTQDGNGHGTHVAGTIAALNNSIGVLGVAPSAELYAVKVLGADGAGAISSIAQGLEWAGNNGMHVANLSLGSPSPSATLEQAVNSATSRGVLVVAASGNSGASSISYPARYANAMAVGATDQNNNRASFSQYGPGLDIMAPGVNIQSTYPGSTYASLNGTSMATPHVAGAAALVKQKNPSWSNVQIRNHLKNTATSLGSTNLYGSGLVNAEAATR |
| 3710 | 68000 | BLAP mutant F45 (S3T + V4I + R99S + A188P + V193M + V199I) (enzyme) AQTIPWGISRVQAPAAHNRGLTGSGVKVAVLDTGISTHPDLNIRGGASFVPGEPSTQDGNGHGTHVAGTIAALNNSIGVLGVAPSAELYAVKVLGADGSGAISSIAQGLEWAGNNGMHVANLSLGSPSPSATLEQAVNSATSRGVLVVAASGNSGASSISYPARYANAMAVGATDQNNNRASFSQYGPGLDIMAPGVNIQSTYPGSTYASLNGTSMATPHVAGAAALVKQKNPSWSNVQIRNHLKNTATSLGSTNLYGSGLVNAEAATR |
| 3670 | 156000 | BLAP variant M131 (S3T + V4I + A188P + V193M + V199I) (enzyme) AQTIPWGISRVQAPAAHNRGLTGSGVKVAVLDTGISTHPDLNIRGGASFVPGEPSTQDGNGHGTHVAGTIAALNNSIGVLGVAPSAELYAVKVLGADGRGAISSIAQGLEWAGNNGMHVANLSLGSPSPSATLEQAVNSATSRGVLVVAASGNSGASSISYPARYANAMAVGATDQNNNRASFSQYGPGLDIMAPGVNIQSTYPGSTYASLNGTSMATPHVAGAAALVKQKNPSWSNVQIRNHLKNTATSLGSTNLYGSGLVNAEAATR |
| 3780 | 99000 | BLAP mutant F43 (S3T + V4I + R99G + A188P + V193M + V199I) (enzyme) AQTIPWGISRVQAPAAHNRGLTGSGVKVAVLDTGISTHPDLNIRGGASFVPGEPSTQDGNGHGTHVAGTIAALNNSIGVLGVAPSAELYAVKVLGADGGGAISSIAQGLEWAGNNGMHVANLSLGSPSPSATLEQAVNSATSRGVLVVAASGNSGASSISYPARYANAMAVGATDQNNNRASFSQYGPGLDIMAPGVNIQSTYPGSTYASLNGTSMATPHVAGAAALVKQKNPSWSNVQIRNHLKNTATSLGSTNLYGSGLVNAEAATR |
| 3610 | 124000 | BLAP mutant F47 (S3T + V4I + S154D + A188P + V193M + V199I) (enzyme) AQTIPWGISRVQAPAAHNRGLTGSGVKVAVLDTGISTHPDLNIRGGASFVPGEPSTQDGNGHGTHVAGTIAALNNSIGVLGVAPSAELYAVKVLGADGRGAISSIAQGLEWAGNNGMHVANLSLGSPSPSATLEQAVNSATSRGVLVVAASGNDGASSISYPARYANAMAVGATDQNNNRASFSQYGPGLDIMAPGVNIQSTYPGSTYASLNGTSMATPHVAGAAALVKQKNPSWSNVQIRNHLKNTATSLGSTNLYGSGLVNAEAATR |
| 4610 | 11000 | BLAP mutant F49 (S3T + V4I + A188P + V193M + V199I + L211D) (enzyme) AQTIPWGISRVQAPAAHNRGLTGSGVKVAVLDTGISTHPDLNIRGGASFVPGEPSTQDGNGHGTHVAGTIAALNNSIGVLGVAPSAELYAVKVLGADGRGAISSIAQGLEWAGNNGMHVANLSLGSPSPSATLEQAVNSATSRGVLVVAASGNSGASSISYPARYANAMAVGATDQNNNRASFSQYGPGLDIMAPGVNIQSTYPGSTYASDNGTSMATPHVAGAAALVKQKNPSWSNVQIRNHLKNTATSLGSTNLYGSGLVNAEAATR |
| 3760 | 92000 | BLAP mutant F11 (S3T + R99S + A188P + V193M + V199I) (enzyme) AQTVPWGISRVQAPAAHNRGLTGSGVKVAVLDTGISTHPDLNIRGGASFVPGEPSTQDGNGHGTHVAGTIAALNNSIGVLGVAPSAELYAVKVLGADGSGAISSIAQGLEWAGNNGMHVANLSLGSPSPSATLEQAVNSATSRGVLVVAASGNSGASSISYPARYANAMAVGATDQNNNRASFSQYGPGLDIMAPGVNIQSTYPGSTYASLNGTSMATPHVAGAAALVKQKNPSWSNVQIRNHLKNTATSLGSTNLYGSGLVNAEAATR |
